Results from publication PMC12266039.

What was measured:
[1] = target: human FcRn receptor (neonatal Fc receptor) (human) (UniProt P55899); assay: SPR
[2] = target: BG505 DS-SOSIP.664 (gp140 trimer) (HIV (BG505)) (UniProt Q2N0S6); assay: SPR

Chain of griffithsin (GRFT) (P84801 whole entry): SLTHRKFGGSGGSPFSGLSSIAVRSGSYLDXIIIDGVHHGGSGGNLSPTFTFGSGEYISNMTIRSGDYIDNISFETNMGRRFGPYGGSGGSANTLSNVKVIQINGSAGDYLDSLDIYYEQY

| Substance | Kd [1] | koff [2] | kon [2] |
| --- | --- | --- | --- |
| VRC01 (standard anti-HIV broadly neutralizing antibody) | 78.2 nM |  |  |
| griffithsin (GRFT) (from UniProt P84801 1-121) (natural protein) |  | 0.0136 s⁻¹ | 1.42e+07 M⁻¹ s⁻¹ |
